Reference: article PMC2425495 (Nucleic Acids Research, 2008)

Key:
[1] = target: T1, HutP (V51I) (Bacillus subtilis, UniProt P10943 1-148, V51I); assay: EMSA
T1 sequence: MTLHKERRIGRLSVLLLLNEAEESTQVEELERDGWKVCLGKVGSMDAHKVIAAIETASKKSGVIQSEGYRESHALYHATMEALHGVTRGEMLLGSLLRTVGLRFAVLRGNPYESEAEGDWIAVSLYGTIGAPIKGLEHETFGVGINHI

[2] = target: the molecule itself; assay: crystal structure

UUUAGUUUUUAGUUUUUAGUU (ssRNA) [21-mer RNA]: binds [1].

B1: HutP (Val 51 Ile mutant), anti-termination protein of the hut operon (natural protein, Bacillus subtilis)
chain: TLHKERRIGRLSVLLLLNEAEESTQVEELERDGWKVCLGKVGSMDAHKVIAAIETASKKSGVIQSEGYRESHALYHATMEALHGVTRGEMLLGSLLRTVGLRFAVLRGNPYESEAEGDWIAVSLYGTIGAPIKGLEHETFGVGINHI
In the case of B1, the “stoichiometry N” value [2] is reported as 6.
